Among the data in paper PMC9913352 are stoichiometry N values, retold here.

The target of the test is untagged human Nit1 isoform 4 (human). The experiment in a line: SEC; untagged proteins after on-column TEV cleavage, Superdex 200-HR, 50 mM Tris/HCl pH 8.0, 100 mM NaCl, 2 mM MgCl2, 0.3 mL/min; calibrated with marker proteins.

What is called stoichiometry N is the number of molecules, sites or subunits per partner or assembly. Turning to “untagged human Nit1 isoform 4 (natural protein)”, the stoichiometry N came out at 4.
